From paper PMC6100724, “Proteome‐wide analysis of phospho‐regulated PDZ domain interactions” (Molecular Systems Biology, 2018) come the findings set out here.

In general, Kd refers to a measure of binding affinity in units of concentration. The low end stands for tighter binding, the high end for weaker binding.

Assay [1] concerns the target FITC-…, phosphomimetic (p-6) TANC1 peptide (human). The experiment in a line: MST; FITC-labeled peptide fixed at 25-50 nM, DLG1 PDZ2 titrated (1:1 dilution series); 50 mM Tris-HCl pH 7.4, 0.1% Tween-20; KD from thermophoresis and T-Jump signal; n = 3.
Assay [2] concerns the target FITC-HTNETEL, phosphomimetic (p-1) MCC peptide (human). Described as above.
Assay [3] addresses Scribble PDZ1 (human, aa 719-829) (human) (UniProt Q14160). The assay is described as follows: ITC; iTC200, 25°C, 20 mM HEPES pH 7.4; protein 50-100 µM in the cell, 0.64-3 mM peptide in the syringe; single-site fit, stoichiometry fixed to 0.8-1.1; triplicate. A general note: Isothermal titration calorimetry measures the heat released or taken up as one component is titrated into another.

Assay [4] addresses Scribble PDZ1, 719-829 (UniProt Q14160). The assay is described as follows: ITC. The settings on record: reference: unphosphorylated …; sites S730.

DLG1 PDZ2 (human DLG1 PDZ2 aa 311-407), sequence (Q12959 311-407): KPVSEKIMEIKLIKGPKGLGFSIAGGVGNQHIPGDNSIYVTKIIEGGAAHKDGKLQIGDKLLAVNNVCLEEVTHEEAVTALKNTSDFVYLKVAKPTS
Scribble PDZ1, 719-829, sequence (Q14160 whole entry, looked up, tested part not stated): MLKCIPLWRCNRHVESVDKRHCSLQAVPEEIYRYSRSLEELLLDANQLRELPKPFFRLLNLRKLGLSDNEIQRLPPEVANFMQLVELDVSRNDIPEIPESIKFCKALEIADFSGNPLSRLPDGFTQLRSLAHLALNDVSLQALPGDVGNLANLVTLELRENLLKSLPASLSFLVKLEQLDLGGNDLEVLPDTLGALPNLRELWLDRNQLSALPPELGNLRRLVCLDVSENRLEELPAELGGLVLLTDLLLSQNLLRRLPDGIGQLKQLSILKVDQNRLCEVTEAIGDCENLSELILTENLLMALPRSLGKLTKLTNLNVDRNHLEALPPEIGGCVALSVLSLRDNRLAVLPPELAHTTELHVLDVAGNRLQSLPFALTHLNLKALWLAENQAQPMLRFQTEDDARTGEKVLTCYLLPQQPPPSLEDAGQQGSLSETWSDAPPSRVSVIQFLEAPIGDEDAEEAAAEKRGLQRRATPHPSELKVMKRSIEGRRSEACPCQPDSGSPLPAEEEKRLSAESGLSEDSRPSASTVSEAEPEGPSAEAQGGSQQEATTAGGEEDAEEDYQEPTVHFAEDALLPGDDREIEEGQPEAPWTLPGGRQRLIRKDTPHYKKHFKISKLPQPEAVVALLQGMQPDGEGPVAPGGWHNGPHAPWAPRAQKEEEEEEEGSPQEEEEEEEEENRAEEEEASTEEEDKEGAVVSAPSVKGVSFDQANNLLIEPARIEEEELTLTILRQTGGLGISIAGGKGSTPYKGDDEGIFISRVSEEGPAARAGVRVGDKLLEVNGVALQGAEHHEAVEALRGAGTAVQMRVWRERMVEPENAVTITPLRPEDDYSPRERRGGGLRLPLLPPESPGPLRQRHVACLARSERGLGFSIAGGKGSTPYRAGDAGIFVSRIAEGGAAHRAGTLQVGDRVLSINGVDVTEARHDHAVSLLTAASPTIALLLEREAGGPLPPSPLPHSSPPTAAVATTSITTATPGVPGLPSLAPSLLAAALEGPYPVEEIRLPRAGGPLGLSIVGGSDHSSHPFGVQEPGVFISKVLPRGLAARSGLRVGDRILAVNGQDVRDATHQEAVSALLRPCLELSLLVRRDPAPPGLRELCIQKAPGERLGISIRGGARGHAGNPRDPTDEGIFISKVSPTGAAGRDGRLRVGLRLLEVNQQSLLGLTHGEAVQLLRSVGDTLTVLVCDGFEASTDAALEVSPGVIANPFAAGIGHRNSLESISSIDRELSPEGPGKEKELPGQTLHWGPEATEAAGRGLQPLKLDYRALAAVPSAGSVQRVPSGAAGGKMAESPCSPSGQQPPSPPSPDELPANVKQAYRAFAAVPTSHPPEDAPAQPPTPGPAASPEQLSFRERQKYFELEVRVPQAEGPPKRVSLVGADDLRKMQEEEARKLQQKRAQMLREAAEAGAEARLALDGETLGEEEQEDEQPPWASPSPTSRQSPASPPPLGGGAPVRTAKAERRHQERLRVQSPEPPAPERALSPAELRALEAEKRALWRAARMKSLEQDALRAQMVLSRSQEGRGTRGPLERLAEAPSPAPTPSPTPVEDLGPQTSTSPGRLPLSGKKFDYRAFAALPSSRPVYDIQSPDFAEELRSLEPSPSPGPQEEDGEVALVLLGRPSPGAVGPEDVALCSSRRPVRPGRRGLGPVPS
Scribble PDZ1 (human, aa 719-829) (human), sequence (Q14160 719-829): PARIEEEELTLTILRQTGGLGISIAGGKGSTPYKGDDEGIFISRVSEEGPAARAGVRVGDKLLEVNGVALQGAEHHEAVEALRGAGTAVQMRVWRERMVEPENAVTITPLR

For the substance “DLG1 PDZ2 (human DLG1 PDZ2 aa 311-407) (from UniProt Q12959 311-407) (domain or fragment)”, the Kd in assay [1] was 5.1 µM; in assay [2], 21 µM.
As to MAPK12 peptide … (unphosphorylated), the Kd in assay [3] amounted to 1.2 µM.
“RPS6KA2 C-terminal 9 residues (from UniProt Q15349) MKRLTpSTRL”: the fold change entry in assay [4] was “stronger”.
